Measurements: patent publication US7709002

Assays:
HLA-A2 (human) [1] = test: T2 bioassay (peptide 50 µg/ml + b2m 3 µg/ml, overnight), flow cytometry, stained with anti-HLA-A2 MAb
HLA-A2 (human) [2] = test: T2 bioassay (peptide 50 µg/ml + b2m 3 µg/ml, overnight), flow cytometry, stained with pan class I MAb W6/32
[3] = target: ras p21 proteins of the HT-29 colon carcinoma cell line (no known ras codon 12 point mutation) (human) (UniProt P01116); test: sandwich ELISA, RAS 10 capture, Y13-238 detection, HT29 lysate 75 µg protein
[4] = target: ras p21 proteins of the HT-29 colon carcinoma cell line (no known ras codon 12 point mutation) (human) (UniProt P01116); test: sandwich ELISA, RAS 10 capture, Y13-238 detection, HT29 lysate 7.5 µg protein
[5] = target: ras p21 proteins of the SW480 colon carcinoma cell line (K-ras Val12 mutation) (human) (UniProt P01116); test: sandwich ELISA, RAS 10 capture, Y13-238 detection, SW480 lysate 75 µg protein
[6] = target: ras p21 proteins of the Calu-1 lung carcinoma cell line (K-ras Cys12 mutation) (human) (UniProt P01116); test: sandwich ELISA, RAS 10 capture, Y13-238 detection, Calu-1 lysate 75 µg protein
[7] = target: ras p21 proteins of the SW480 colon carcinoma cell line (K-ras Val12 mutation) (human) (UniProt P01116); test: sandwich ELISA, RAS 10 capture, Y13-238 detection, SW480 lysate 7.5 µg protein
[8] = target: ras p21 proteins of the Calu-1 lung carcinoma cell line (K-ras Cys12 mutation) (human) (UniProt P01116); test: sandwich ELISA, RAS 10 capture, Y13-238 detection, Calu-1 lysate 7.5 µg protein
[9] = target: ras p21 proteins of the HT-29 colon carcinoma cell line (no known ras codon 12 point mutation) (human) (UniProt P01116); test: flow cytometry, fixed permeabilised HT29 cells, isotype-matched control UPC-10
[10] = target: ras p21 proteins of the SW480 colon carcinoma cell line (K-ras Val12 mutation) (human) (UniProt P01116); test: flow cytometry, fixed permeabilised SW480 cells, isotype-matched control UPC-10
[11] = target: ras p21 proteins of the Calu-1 lung carcinoma cell line (K-ras Cys12 mutation) (human) (UniProt P01116); test: flow cytometry, fixed permeabilised Calu-1 cells, isotype-matched control UPC-10
HLA-A2 (human) [12] = test: T2 bioassay, isotype-matched control MAb staining of T2 cells incubated with CEA571-579
HLA-A2 (human) [13] = test: T2 bioassay, isotype-matched control MAb staining of T2 cells incubated with ras5-12(V12)
HLA-A2 (human) [14] = test: T2 bioassay, isotype-matched control MAb staining of T2 cells incubated with ras5-13(V12)
HLA-A2 (human) [15] = test: T2 bioassay, isotype-matched control MAb staining of T2 cells incubated with ras5-14(C12)
HLA-A2 (human) [16] = test: T2 bioassay, isotype-matched control MAb staining of T2 cells incubated with ras5-14(D12)
HLA-A2 (human) [17] = test: T2 bioassay, isotype-matched control MAb staining of T2 cells incubated with ras5-14(G12)
HLA-A2 (human) [18] = test: T2 bioassay, isotype-matched control MAb staining of T2 cells incubated with ras5-14(V12)
HLA-A2 (human) [19] = test: T2 bioassay, isotype-matched control MAb staining of T2 cells incubated with ras5-17(D12)
HLA-A2 (human) [20] = test: T2 bioassay, isotype-matched control MAb staining of T2 cells incubated with ras8-16(V12)
HLA-A2 (human) [21] = test: T2 bioassay, no peptide, flow cytometry, isotype-matched control MAb staining of T2 cells
[22] = target: ras p21 proteins of the Calu-1 lung carcinoma cell line (K-ras Cys12 mutation) (human) (UniProt P01116); test: cell-based or functional assay
[23] = target: ras p21 proteins of the HT-29 colon carcinoma cell line (no known ras codon 12 point mutation) (human) (UniProt P01116); test: flow cytometry, fixed permeabilised HT29 cells, RAS 10 at 1 µg/ml
[24] = target: ras p21 proteins of the HT-29 colon carcinoma cell line (no known ras codon 12 point mutation) (human) (UniProt P01116); test: flow cytometry, fixed permeabilised HT29 cells, RAS 10 at 3 µg/ml
[25] = target: ras p21 proteins of the HT-29 colon carcinoma cell line (no known ras codon 12 point mutation) (human) (UniProt P01116); test: flow cytometry, fixed permeabilised HT29 cells, RAS 10 at 10 µg/ml
[26] = target: ras p21 proteins of the SW480 colon carcinoma cell line (K-ras Val12 mutation) (human) (UniProt P01116); test: flow cytometry, fixed permeabilised SW480 cells, RAS 10 at 1 µg/ml
[27] = target: ras p21 proteins of the SW480 colon carcinoma cell line (K-ras Val12 mutation) (human) (UniProt P01116); test: flow cytometry, fixed permeabilised SW480 cells, RAS 10 at 3 µg/ml
[28] = target: ras p21 proteins of the Calu-1 lung carcinoma cell line (K-ras Cys12 mutation) (human) (UniProt P01116); test: flow cytometry, fixed permeabilised Calu-1 cells, RAS 10 at 1 µg/ml
[29] = target: ras p21 proteins of the Calu-1 lung carcinoma cell line (K-ras Cys12 mutation) (human) (UniProt P01116); test: flow cytometry, fixed permeabilised Calu-1 cells, RAS 10 at 3 µg/ml
[30] = target: ras p21 proteins of the SW480 colon carcinoma cell line (K-ras Val12 mutation) (human) (UniProt P01116); test: flow cytometry, fixed permeabilised SW480 cells, RAS 10 at 10 µg/ml
[31] = target: ras p21 proteins of the Calu-1 lung carcinoma cell line (K-ras Cys12 mutation) (human) (UniProt P01116); test: flow cytometry, fixed permeabilised Calu-1 cells, RAS 10 at 10 µg/ml
[32] = target: MHC class I (HLA class I) molecules; test: flow cytometry, HT29 cells, W6/32
[33] = target: MHC class I (HLA class I) molecules; test: flow cytometry, SW480 cells, W6/32
[34] = target: MHC class I (HLA class I) molecules; test: flow cytometry, Calu-1 cells, W6/32
[35] = target: MHC class I (HLA class I) molecules; test: T2 bioassay, no peptide (b2m 3 µg/ml only), flow cytometry, staining of T2 cells with pan class I MAb W6/32; baseline
[36] = target: ras p21 proteins of the HT-29 colon carcinoma cell line (no known ras codon 12 point mutation) (human) (UniProt P01116); test: sandwich ELISA, RAS 10 capture of HT29 lysate, rat anti-mouse B7.1 in place of the detection MAb
[37] = target: ras p21 proteins of the SW480 colon carcinoma cell line (K-ras Val12 mutation) (human) (UniProt P01116); test: sandwich ELISA, RAS 10 capture of SW480 lysate, rat anti-mouse B7.1 in place of the detection MAb
[38] = target: ras p21 proteins of the Calu-1 lung carcinoma cell line (K-ras Cys12 mutation) (human) (UniProt P01116); test: sandwich ELISA, RAS 10 capture of Calu-1 lysate, rat anti-mouse B7.1 in place of the detection MAb

## CEA571-579 peptide (from UniProt P06731 571-579)
HLA-A2 (human) [1]
  MFI: 680
HLA-A2 (human) [2]
  MFI: 991

## ras MAb, clone Y13-238 (antibody)
[3]
  Immunoreactivity (A490): 1.49 A490
[4]
  Immunoreactivity (A490): 0.99 A490
[5]
  Immunoreactivity (A490): 1.59 A490
[6]
  Immunoreactivity (A490): 1.5 A490
[7]
  Immunoreactivity (A490): 1.5 A490
[8]
  Immunoreactivity (A490): 1.29 A490

## isotype-matched (IgG2a) MAb UPC-10 (antibody)
[9]
  Percent Positive Cells: 11.6%
[10]
  Percent Positive Cells: 5.3%
[11]
  Percent Positive Cells: 1%
HLA-A2 (human) [12]
  MFI: 48.4
HLA-A2 (human) [13]
  MFI: 44.2
HLA-A2 (human) [14]
  MFI: 54.1
HLA-A2 (human) [15]
  MFI: 61.4
HLA-A2 (human) [16]
  MFI: 50.8
HLA-A2 (human) [17]
  MFI: 41.3
HLA-A2 (human) [18]
  MFI: 38.1
HLA-A2 (human) [19]
  MFI: 46.5
HLA-A2 (human) [20]
  MFI: 39.6
HLA-A2 (human) [21]
  MFI: 84

## isotype-matched (IgG2a) MAb UPC-10
[22]
  Proliferation Response (3H-thymidine uptake, cpm) of the CD4+ T cell line of patient 43 to Calu-1 extract (250 µg protein) on wells coated with isotype-matched MAb UPC-10, with BLCL: 7320 cpm

## pan-ras MAb, clone RAS 10 (antibody)
[23]
  MFI: 233
  Percent Positive Cells: 58.6%
[24]
  MFI: 304
  Percent Positive Cells: 83.4%
[25]
  MFI: 423
  Percent Positive Cells: 93.1%
[26]
  MFI: 273
  Percent Positive Cells: 67%
[27]
  MFI: 386
  Percent Positive Cells: 82.8%
[28]
  MFI: 176
  Percent Positive Cells: 59.8%
[29]
  MFI: 225
  Percent Positive Cells: 87.8%
[30]
  MFI: 631
  Percent Positive Cells: 83.4%
[31]
  MFI: 332
  Percent Positive Cells: 90.6%

## pan HLA class I MAb W6/32 (antibody)
[32]
  MFI: 1310
  Percent Positive Cells: 93.5%
[33]
  MFI: 1180
  Percent Positive Cells: 84.2%
[34]
  MFI: 1620
  Percent Positive Cells: 93.4%
[35]
  MFI: 230

## rat IgG2a anti-mouse B7.1 MAb (antibody)
[36]
  Immunoreactivity (A490): 0.283 A490
[37]
  Immunoreactivity (A490): 0.333 A490
[38]
  Immunoreactivity (A490): 0.299 A490

## pan-ras MAb, clone RAS 10
[22]
  Proliferation Response (3H-thymidine uptake, cpm) of the CD4+ T cell line of patient 43 to Calu-1 extract (250 µg protein) on wells coated with RAS 10, with BLCL: 80500 cpm
